According to IntAct's records for PubMed 16367866:

B1: Translocated intimin receptor Tir (Escherichia coli O127:H6 (strain E2348/69 / EPEC)), B7UM99 (parent)
chain: MPIGNLGNNVNGNHLIPPAPPLPSQTDGAARGGTGHLISSTGALGSRSLFSPLRNSMADSVDSRDIPGLPTNPSRLAAATSETCLLGGFEVLHDKGPLDILNTQIGPSAFRVEVQADGTHAAIGEKNGLEVSVTLSPQEWSSLQSIDTEGKNRFVFTGGRGGSGHPMVTVASDIAEARTKILAKLDPDNHGGRQPKDVDTRSVGVGSASGIDDGVVSETHTSTTNSSVRSDPKFWVSVGAIAAGLAGLAATGIAQALALTPEPDDPTTTDPDQAANAAESATKDQLTQEAFKNPENQKVNIDANGNAIPSGELKDDIVEQIAQQAKEAGEVARQQAVESNAQAQQRYEDQHARRQEELQLSSGIGYGLSSALIVAGGIGAGVTTALHRRNQPAEQTTTTTTHTVVQQQTGGNTPAQGGTDATRAEDASLNRRDSQGSVASTHWSDSSSEVVNPYAEVGGARNSLSAHQPEEHIYDEVAADPGYSVIQNFSGSGPVTGRLIGTPGQGIQSTYALLANSGGLRLGMGGLTSGGESAVSSVNAAPTPGPVRFV
partner: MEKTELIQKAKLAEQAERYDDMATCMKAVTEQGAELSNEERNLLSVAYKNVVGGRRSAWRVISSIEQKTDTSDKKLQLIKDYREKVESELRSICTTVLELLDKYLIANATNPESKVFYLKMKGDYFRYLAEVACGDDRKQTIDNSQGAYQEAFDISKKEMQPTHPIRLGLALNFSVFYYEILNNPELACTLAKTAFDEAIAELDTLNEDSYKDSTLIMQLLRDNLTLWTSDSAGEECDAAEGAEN

Variants of: B1
Details: with 1433t_human YWHAQ

Variant	effect of a mutation on the interaction
S434A	with no effect
S51A	with no effect
S465A	with no effect
